Assay results from patent US20180371066A1 (C2N DIAGNOSTICS, published 2018).

Key:
[1] = biological target: T1, recombinant human Tau-412 protein (human, UniProt P10636-7 1-412); assay: SPR Biacore T200, Protein A capture, mean of the VH1/VK2 runs
T1 construct: Analyte of the SPR study; also called human tau (1N4R, 412 amino acids)
Description: Kinetic data was obtained at a flow rate of 40 μL/min to minimize any potential mass transfer effects. Two repeats of the blank (no antigen) and the 2.5 nM concentration of the analyte were programmed into the kinetic run in order to check the stability of both the surface and analyte over the kinetic cycles. For the initial kinetic runs, 2-fold dilutions of Tau-412 from 40 nM to 0.156 nM were run. For kinetic analysis and on subsequent runs, an analyte range of 20 nM to 0.625 nM was selected. This range covered multiple analyte concentrations both above and below the reported KD.
The association phase was monitored for 500 seconds to allow some of the higher concentrations of analyte to reach steady state. In order to observe a sufficient signal decrease (>10%) during the dissociation phase of the kinetic cycle, dissociation was measured for 1200 seconds. As discussed in Section 5, the Fcs were allowed to stabilize for 600 seconds after each regeneration step. The signal from the reference channel Fc1 was subtracted from that of Fc2, Fc3 and Fc4.
The kinetic parameters for the interaction of Tau-412 with the 7 mAbs as measured using the Protein A capture system on the Biacore T200 are shown in Table F-2. To correct for differences in the capture level of the antibody between each binding cycle, a local Rₘₐₓ parameter was used in the 1-to-1 binding model. Kinetic analysis was performed in three independent runs using fresh preparations of Tau-412 and antibody. Run 1 and runs 2+3 used different vials of the antigen Tau-412; therefore the reported errors associated with the mean response probably represent variation in preparation of the analyte and differences in assay set-up and run. From run 1 to runs 2+3, the amount of antibody injected was adjusted to try to get closer to the target 300 RU capture levels.

PEP_2875817 = biological target: T2, PEP_2875817; assay: peptide array of 15-mers of human tau probed with the antibody; label LIN.AA (double alanine)
T2 peptide: GDRKDQGGYAAHQDQ

PEP_2875809 = biological target: T3, PEP_2875809; assay: as above
T3 peptide: TYGLGDRKDAAGYTM

PEP_2875821 = biological target: T4, PEP_2875821; assay: as above
T4 peptide: RKDQGGYTMAADQEG

PEP_2875811 = biological target: T5, PEP_2875811; assay: as above
T5 peptide: YGLGDRKDQAAYTMH

PEP_2875823 = biological target: T6, PEP_2875823; assay: as above
T6 peptide: KDQGGYTMHAAQEGD

PEP_2875819 = biological target: T7, PEP_2875819; assay: as above
T7 peptide: DRKDQGGYTAAQDQE

human tau = biological target: T8, human tau (human, UniProt P10636 2-60); assay: competition ELISA on plate-coated human tau against biotinylated HJ8.5; IC50 normalised to chimeric HJ8.5; column External
T8 construct: also called soluble human tau; human tau protein
T8 sequence (P10636 2-60 limits assumed): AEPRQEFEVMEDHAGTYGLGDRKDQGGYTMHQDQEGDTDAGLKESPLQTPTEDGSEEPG

T1 sequence (P10636 other isoform, or with tags, fused parts or gaps limits assumed): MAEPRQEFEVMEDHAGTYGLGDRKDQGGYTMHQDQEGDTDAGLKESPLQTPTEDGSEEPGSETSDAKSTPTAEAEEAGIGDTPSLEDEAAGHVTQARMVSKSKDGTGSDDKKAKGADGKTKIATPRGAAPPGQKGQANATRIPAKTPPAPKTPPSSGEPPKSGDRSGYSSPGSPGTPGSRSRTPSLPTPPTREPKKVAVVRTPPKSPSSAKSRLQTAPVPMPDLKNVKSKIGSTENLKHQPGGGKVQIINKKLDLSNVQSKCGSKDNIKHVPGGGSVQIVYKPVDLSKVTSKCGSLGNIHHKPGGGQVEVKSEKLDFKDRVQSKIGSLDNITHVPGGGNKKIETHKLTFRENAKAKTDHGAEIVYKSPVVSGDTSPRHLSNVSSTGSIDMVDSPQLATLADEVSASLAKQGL

Kd [1]: 2.06 nM
koff [1]: 0.000621 s⁻¹
kon [1]: 302000 M⁻¹ s⁻¹
Binding Signal (PEP_2875817): 661
Binding Signal (PEP_2875809): 2760
Binding Signal (PEP_2875821): 2790
Binding Signal (PEP_2875811): 1880
Binding Signal (PEP_2875823): 2710
Binding Signal (PEP_2875819): 2580
IC50 (Relative to Chimera) (human tau): 0.78 relative to Chimera
B1: VH1/VK2 humanized anti-tau antibody (C2N-8E12) (antibody, human IgG4 S228P, kappa, V domains shown)
VH: EVKVVESGGGLVQPGGSMKLSCVVSGFTFSNYWVNWVRQAPGKGLEWVAQIRLKSDNYATHYEESVKGRFTISRDDSKSSVYLQMNNLRAEDSGIYYCTNWEDYWGQGTTVTVSS
VL: DIVLTQSPDSLAVSLGERATISCRASQSVSTSRYSYIHWYQQKPGQPPKLLIKYASNLESGVPSRFSGSGSGTDFTLNIHPLEPEDFATYYCHHSWEIPLTFGQGTKLEIKR
notes: Humanized recombinant IgG4 with S241P hinge mutation, human kappa light chain; also called C2N-8EI2
